Assays:
[1] = molecular target: PseCAST Cas7 (Pseudoalteromonas); test: cryo-EM structure
cryo-EM structure = molecular target: the molecule itself; test: cryo-EM structure

| Molecule | stoichiometry N [1] | stoichiometry N (cryo-EM structure) |
| --- | --- | --- |
| PseCAST Cas7 (natural protein) | 6 |  |
| PseCAST TniQ (natural protein) MAFLFSPKIGPFFDESLESYLLRVVSENFFDSYEGLSLAIREELHELDFEAHGAFPIDLKRLNVYHAKHNSHFRMRALGLLETLLDLPRYELQKLALLKSDIKFNSSAALYKGGVDIPQRFICYHTEEAVDSIPVCPQCLAEEAYIKQSWHIKWVNACAKHQCTLVHKCPECCAPINYIENESITHCSCGFELSCGSTSPVNTLSIDHLNKLLNKSELDDNNPLFKNTTLTERFAALLWYQERYSKEETFCLDDVVNYFNGWPVVFYKELDELSKNAAMKLIDLFNKTEFKFIFGNAILSCPNTQKQREPHFIYSTLLDYLATLVESNPKTKKPNVADLLVSVLEAATLLSISIEQVYRLYQDGILQTAFRHKMNQRINPYKGVFFLRHVIEYKTSFGNDKARMYLSAW |  | 2 |
